According to US20250312499A1, “KISSPEPTIN RECEPTOR (KISS1R) TARGETED THERAPEUTICS AND USES THEREOF” (priority 2024, published 2025):
Numbered stars: 1 amine (or outer) side, 2 acyl side, 3 side chain; on linkers, the order of the positions; unused ones are H or OH. Square brackets hold non-standard residues; d marks the D form. * marks the point of attachment. X2 = 4‑amino‑1‑((3-fluoro-4-methylbenzyl)glycyl)piperidine‑4‑carboxylic acid, Cc1ccc(CN(CC(=O)N2CCC(N[*:1])(C(=O)[*:2])CC2)[*:3])cc1F; DOTA = O=C(O)CN1CCN(CC(=O)O)CCN(CC(=O)*)CCN(CC(=O)O)CC1; Api(1-amidino) = N=C(N)N1CCC(N)(C(=O)O)CC1; Phe(4-CN) = N#Cc1ccc(C[C@H](N)C(=O)O)cc1; HO(CH2CH2O)2CH2CH2CO = O=C(CCOCCOCCO)*; 2Nal = N[C@@H](Cc1ccc2ccccc2c1)C(=O)O; d2Nal = N[C@H](Cc1ccc2ccccc2c1)C(=O)O; 4Pal = N[C@@H](Cc1ccncc1)C(=O)O; d4Pal = N[C@H](Cc1ccncc1)C(=O)O; 4Amb = NCc1ccc(C(=O)O)cc1; APM = not defined here; Ahx = NCCCCCC(=O)O; azaGly = NNC(=O)O

B1: Compound 253 (peptide)
peptide: {HO(CH2CH2O)2CH2CH2CO}-K(DOTA)NTF[azaGly]L[X2][4Pal]-NH2
SMILES: Cc1ccc(CNCC(=O)N2CCC(NC(=O)[C@H](CC(C)C)NC(=O)NNC(=O)[C@H](Cc3ccccc3)NC(=O)[C@@H](NC(=O)[C@H](CC(N)=O)NC(=O)[C@H](CCCCNC(=O)CN3CCN(CC(=O)O)CCN(CC(=O)O)CCN(CC(=O)O)CC3)NC(=O)CCOCCOCCO)[C@@H](C)O)(C(=O)N[C@@H](Cc3ccncc3)C(N)=O)CC2)cc1F
B2: Compound 241 (peptide)
peptide: {DOTA-4Amb}-ENTF[azaGly]L[X2][Phe(4-CN)]-NH2
SMILES: Cc1ccc(CNCC(=O)N2CCC(NC(=O)[C@H](CC(C)C)NC(=O)NNC(=O)[C@H](Cc3ccccc3)NC(=O)[C@@H](NC(=O)[C@H](CC(N)=O)NC(=O)[C@H](CCC(=O)O)NC(=O)c3ccc(CNC(=O)CN4CCN(CC(=O)O)CCN(CC(=O)O)CCN(CC(=O)O)CC4)cc3)[C@@H](C)O)(C(=O)N[C@@H](Cc3ccc(C#N)cc3)C(N)=O)CC2)cc1F
B3: Compound 291 (peptide)
peptide: {DOTA-Ahx}-[dY]NTF[azaGly]L[X2][4Pal]-NH2
SMILES: Cc1ccc(CNCC(=O)N2CCC(NC(=O)[C@H](CC(C)C)NC(=O)NNC(=O)[C@H](Cc3ccccc3)NC(=O)[C@@H](NC(=O)[C@H](CC(N)=O)NC(=O)[C@@H](Cc3ccc(O)cc3)NC(=O)CCCCCNC(=O)CN3CCN(CC(=O)O)CCN(CC(=O)O)CCN(CC(=O)O)CC3)[C@@H](C)O)(C(=O)N[C@@H](Cc3ccncc3)C(N)=O)CC2)cc1F
B4: Compound 1 (peptide)
peptide: {DOTA-Ahx}-[dY][dW]NTF[azaGly]L[X2]W-NH2
SMILES: Cc1ccc(CNCC(=O)N2CCC(NC(=O)[C@H](CC(C)C)NC(=O)NNC(=O)[C@H](Cc3ccccc3)NC(=O)[C@@H](NC(=O)[C@H](CC(N)=O)NC(=O)[C@@H](Cc3c[nH]c4ccccc34)NC(=O)[C@@H](Cc3ccc(O)cc3)NC(=O)CCCCCNC(=O)CN3CCN(CC(=O)O)CCN(CC(=O)O)CCN(CC(=O)O)CC3)[C@@H](C)O)(C(=O)N[C@@H](Cc3c[nH]c4ccccc34)C(N)=O)CC2)cc1F
B5: Compound 242 (peptide)
peptide: {DOTA-4Amb}-[dE]NTF[azaGly]L[X2][Phe(4-CN)]-NH2
SMILES: Cc1ccc(CNCC(=O)N2CCC(NC(=O)[C@H](CC(C)C)NC(=O)NNC(=O)[C@H](Cc3ccccc3)NC(=O)[C@@H](NC(=O)[C@H](CC(N)=O)NC(=O)[C@@H](CCC(=O)O)NC(=O)c3ccc(CNC(=O)CN4CCN(CC(=O)O)CCN(CC(=O)O)CCN(CC(=O)O)CC4)cc3)[C@@H](C)O)(C(=O)N[C@@H](Cc3ccc(C#N)cc3)C(N)=O)CC2)cc1F
B6: Compound 295 (peptide)
peptide: {DOTA-Ahx}-[d4Pal]NTF[azaGly]L[X2][4Pal]-NH2
SMILES: Cc1ccc(CNCC(=O)N2CCC(NC(=O)[C@H](CC(C)C)NC(=O)NNC(=O)[C@H](Cc3ccccc3)NC(=O)[C@@H](NC(=O)[C@H](CC(N)=O)NC(=O)[C@@H](Cc3ccncc3)NC(=O)CCCCCNC(=O)CN3CCN(CC(=O)O)CCN(CC(=O)O)CCN(CC(=O)O)CC3)[C@@H](C)O)(C(=O)N[C@@H](Cc3ccncc3)C(N)=O)CC2)cc1F
B7: Compound 292 (peptide)
peptide: {DOTA-Ahx}-[d2Nal]NTF[azaGly]L[X2][4Pal]-NH2
SMILES: Cc1ccc(CNCC(=O)N2CCC(NC(=O)[C@H](CC(C)C)NC(=O)NNC(=O)[C@H](Cc3ccccc3)NC(=O)[C@@H](NC(=O)[C@H](CC(N)=O)NC(=O)[C@@H](Cc3ccc4ccccc4c3)NC(=O)CCCCCNC(=O)CN3CCN(CC(=O)O)CCN(CC(=O)O)CCN(CC(=O)O)CC3)[C@@H](C)O)(C(=O)N[C@@H](Cc3ccncc3)C(N)=O)CC2)cc1F
B8: Compound 254 (peptide)
peptide: {HO(CH2CH2O)2CH2CH2CO}-[dK](DOTA)NTF[azaGly]L[X2][4Pal]-NH2
SMILES: Cc1ccc(CNCC(=O)N2CCC(NC(=O)[C@H](CC(C)C)NC(=O)NNC(=O)[C@H](Cc3ccccc3)NC(=O)[C@@H](NC(=O)[C@H](CC(N)=O)NC(=O)[C@@H](CCCCNC(=O)CN3CCN(CC(=O)O)CCN(CC(=O)O)CCN(CC(=O)O)CC3)NC(=O)CCOCCOCCO)[C@@H](C)O)(C(=O)N[C@@H](Cc3ccncc3)C(N)=O)CC2)cc1F
B9: Compound 10 (peptide)
peptide: {DOTA-Ahx}-FGL[X2]W-NH2
SMILES: Cc1ccc(CNCC(=O)N2CCC(NC(=O)[C@H](CC(C)C)NC(=O)CNC(=O)[C@H](Cc3ccccc3)NC(=O)CCCCCNC(=O)CN3CCN(CC(=O)O)CCN(CC(=O)O)CCN(CC(=O)O)CC3)(C(=O)N[C@@H](Cc3c[nH]c4ccccc34)C(N)=O)CC2)cc1F
B10: Compound 290 (peptide)
peptide: {DOTA-Ahx}-[dW]NTF[azaGly]L[X2][4Pal]-NH2
SMILES: Cc1ccc(CNCC(=O)N2CCC(NC(=O)[C@H](CC(C)C)NC(=O)NNC(=O)[C@H](Cc3ccccc3)NC(=O)[C@@H](NC(=O)[C@H](CC(N)=O)NC(=O)[C@@H](Cc3c[nH]c4ccccc34)NC(=O)CCCCCNC(=O)CN3CCN(CC(=O)O)CCN(CC(=O)O)CCN(CC(=O)O)CC3)[C@@H](C)O)(C(=O)N[C@@H](Cc3ccncc3)C(N)=O)CC2)cc1F
B11: Compound 11 (peptide)
peptide: {DOTA-Ahx}-FGL[X2]Y-NH2
SMILES: Cc1ccc(CNCC(=O)N2CCC(NC(=O)[C@H](CC(C)C)NC(=O)CNC(=O)[C@H](Cc3ccccc3)NC(=O)CCCCCNC(=O)CN3CCN(CC(=O)O)CCN(CC(=O)O)CCN(CC(=O)O)CC3)(C(=O)N[C@@H](Cc3ccc(O)cc3)C(N)=O)CC2)cc1F
B12: Compound 238 (peptide)
peptide: {DOTA-Ahx}-ENTF[azaGly]L[X2]W-NH2
SMILES: Cc1ccc(CNCC(=O)N2CCC(NC(=O)[C@H](CC(C)C)NC(=O)NNC(=O)[C@H](Cc3ccccc3)NC(=O)[C@@H](NC(=O)[C@H](CC(N)=O)NC(=O)[C@H](CCC(=O)O)NC(=O)CCCCCNC(=O)CN3CCN(CC(=O)O)CCN(CC(=O)O)CCN(CC(=O)O)CC3)[C@@H](C)O)(C(=O)N[C@@H](Cc3c[nH]c4ccccc34)C(N)=O)CC2)cc1F
B13: Compound 266 (peptide)
peptide: {DOTA}-[dY][2Nal]NTF[azaGly]L[Api(1-amidino)]W-NH2
SMILES: CC(C)C[C@H](NC(=O)NNC(=O)[C@H](Cc1ccccc1)NC(=O)[C@@H](NC(=O)[C@H](CC(N)=O)NC(=O)[C@H](Cc1ccc2ccccc2c1)NC(=O)[C@@H](Cc1ccc(O)cc1)NC(=O)CN1CCN(CC(=O)O)CCN(CC(=O)O)CCN(CC(=O)O)CC1)[C@@H](C)O)C(=O)NC1(C(=O)N[C@@H](Cc2c[nH]c3ccccc23)C(N)=O)CCN(C(=N)N)CC1
B14: Compound 270 (peptide)
peptide: {DOTA-Ahx-4Amb}-[dY][dW]NTF[azaGly]L[Api(1-amidino)]W-NH2
SMILES: CC(C)C[C@H](NC(=O)NNC(=O)[C@H](Cc1ccccc1)NC(=O)[C@@H](NC(=O)[C@H](CC(N)=O)NC(=O)[C@@H](Cc1c[nH]c2ccccc12)NC(=O)[C@@H](Cc1ccc(O)cc1)NC(=O)c1ccc(CNC(=O)CCCCCNC(=O)CN2CCN(CC(=O)O)CCN(CC(=O)O)CCN(CC(=O)O)CC2)cc1)[C@@H](C)O)C(=O)NC1(C(=O)N[C@@H](Cc2c[nH]c3ccccc23)C(N)=O)CCN(C(=N)N)CC1
B15: Compound 272 (peptide)
peptide: {DOTA-4Amb}-NTF[azaGly]L[Api(1-amidino)][4Pal]-NH2
SMILES: CC(C)C[C@H](NC(=O)NNC(=O)[C@H](Cc1ccccc1)NC(=O)[C@@H](NC(=O)[C@H](CC(N)=O)NC(=O)c1ccc(CNC(=O)CN2CCN(CC(=O)O)CCN(CC(=O)O)CCN(CC(=O)O)CC2)cc1)[C@@H](C)O)C(=O)NC1(C(=O)N[C@@H](Cc2ccncc2)C(N)=O)CCN(C(=N)N)CC1

Target: human kisspeptin receptor (KISS1R) (human), Q969F8
Assay: radioligand competition, hKISS1R membranes; legend: A is <10 nM

Chain of human kisspeptin receptor (KISS1R) (human), Q969F8 (Q969F8 whole entry): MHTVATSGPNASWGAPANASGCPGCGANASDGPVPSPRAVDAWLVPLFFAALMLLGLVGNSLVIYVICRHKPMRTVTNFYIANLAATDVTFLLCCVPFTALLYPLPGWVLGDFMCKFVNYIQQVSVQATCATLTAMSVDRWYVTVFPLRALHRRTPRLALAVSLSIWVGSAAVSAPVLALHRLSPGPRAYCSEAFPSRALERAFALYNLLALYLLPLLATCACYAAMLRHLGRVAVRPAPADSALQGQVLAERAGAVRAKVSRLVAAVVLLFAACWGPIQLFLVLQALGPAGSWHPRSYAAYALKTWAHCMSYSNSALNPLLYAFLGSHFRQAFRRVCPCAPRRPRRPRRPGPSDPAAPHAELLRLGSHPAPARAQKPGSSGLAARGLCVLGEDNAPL

Binder | Ki [µM]
B1 | < 0.01
{DOTA-APM}-TF[azaGly]L[X2]Y-NH2 (reading uncertain) [Compound 250] | < 0.01
B2 | < 0.01
{DOTA-APM}-NTF[azaGly]L[X2]Y-NH2 (reading uncertain) [Compound 249] | < 0.01
{DOTA-APM}-F[azaGly]L[X2]Y-NH2 (reading uncertain) [Compound 247] | < 0.01
B3 | < 0.01
B4 | < 0.01
{3‑(2-(2-methoxyethoxy)ethoxy)propanoyl}-K(DOTA)NTF[azaGly]L[X2][4Pal]-NH2 [Compound 255] | < 0.01
B5 | < 0.01
{3‑(2-(2-methoxyethoxy)ethoxy)propanoyl}-K(DOTA)NTF[azaGly]L[Api(1-amidino)]W-NH2 [Compound 264] | < 0.01
{DOTA-4Amb}-NTFGL[X2][Phe(4-CN)]-NH2 (not fully specified) [Compound 240] | < 0.01
{DOTA-Ahx}-[dY][dW]NTF[azaGly]L[Apc(OMe)][4Pal]-NH2 [Compound 293] | < 0.01
B6 | < 0.01
{DOTA-APM}-F[azaGly]L[X2]F-NH2 (reading uncertain) [Compound 245] | < 0.01
B7 | < 0.01
B8 | < 0.01
B9 | < 0.01
{1‑hydroxy‑3,6,9,12,15,18,21,24‑octaoxaheptacosan‑27‑oyl}-K(DOTA)NTF[azaGly]L[X2][4Pal]-NH2 [Compound 256] | < 0.01
B10 | < 0.01
B11 | < 0.01
B12 | < 0.01
B13 | < 0.01
{DOTA-APM}-F[azaGly]L[X2][Phe(4-CN)]-NH2 (reading uncertain) [Compound 244] | < 0.01
B14 | < 0.01
B15 | < 0.01
